The values that follow come from publication PMC7610691 (Nature structural & molecular biology, 2020).

For experiment [1], the target named is T1, Smc2 (S. cerevisiae condensin subunit) (S. cerevisiae, UniProt P38989 1-1170).
T1 sequence: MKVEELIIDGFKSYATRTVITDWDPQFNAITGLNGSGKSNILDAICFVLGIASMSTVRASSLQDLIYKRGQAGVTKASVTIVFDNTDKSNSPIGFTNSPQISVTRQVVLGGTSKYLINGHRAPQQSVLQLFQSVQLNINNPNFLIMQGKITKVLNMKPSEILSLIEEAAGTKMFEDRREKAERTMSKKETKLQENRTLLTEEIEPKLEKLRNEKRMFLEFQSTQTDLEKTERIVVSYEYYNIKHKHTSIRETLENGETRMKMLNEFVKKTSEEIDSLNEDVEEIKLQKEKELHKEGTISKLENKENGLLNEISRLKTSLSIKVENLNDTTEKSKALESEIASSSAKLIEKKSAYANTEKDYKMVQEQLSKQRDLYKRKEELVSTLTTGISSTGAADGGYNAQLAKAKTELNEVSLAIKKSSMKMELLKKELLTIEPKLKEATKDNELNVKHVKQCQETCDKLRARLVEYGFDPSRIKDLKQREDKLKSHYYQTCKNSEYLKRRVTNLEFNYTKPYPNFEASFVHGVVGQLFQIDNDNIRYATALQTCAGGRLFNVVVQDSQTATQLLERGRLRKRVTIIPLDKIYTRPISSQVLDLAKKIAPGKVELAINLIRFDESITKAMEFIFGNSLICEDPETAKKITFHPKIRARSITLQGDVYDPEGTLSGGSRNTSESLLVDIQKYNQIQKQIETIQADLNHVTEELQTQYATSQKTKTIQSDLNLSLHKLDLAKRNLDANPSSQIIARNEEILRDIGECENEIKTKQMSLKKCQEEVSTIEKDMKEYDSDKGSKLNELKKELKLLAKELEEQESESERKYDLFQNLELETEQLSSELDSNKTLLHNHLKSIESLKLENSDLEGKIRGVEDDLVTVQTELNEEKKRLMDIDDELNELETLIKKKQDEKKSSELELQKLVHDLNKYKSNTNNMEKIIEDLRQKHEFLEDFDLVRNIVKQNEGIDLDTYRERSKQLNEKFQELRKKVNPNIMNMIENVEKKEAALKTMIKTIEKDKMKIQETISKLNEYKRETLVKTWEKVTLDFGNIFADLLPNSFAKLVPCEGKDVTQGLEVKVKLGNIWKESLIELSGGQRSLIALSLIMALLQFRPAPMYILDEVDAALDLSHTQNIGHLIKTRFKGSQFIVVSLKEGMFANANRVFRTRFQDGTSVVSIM
In words: cryo-EM structure.

Experiment [2] deals with T2, Smc4 (S. cerevisiae condensin subunit) (S. cerevisiae, UniProt Q12267 1-1418).
T2 sequence: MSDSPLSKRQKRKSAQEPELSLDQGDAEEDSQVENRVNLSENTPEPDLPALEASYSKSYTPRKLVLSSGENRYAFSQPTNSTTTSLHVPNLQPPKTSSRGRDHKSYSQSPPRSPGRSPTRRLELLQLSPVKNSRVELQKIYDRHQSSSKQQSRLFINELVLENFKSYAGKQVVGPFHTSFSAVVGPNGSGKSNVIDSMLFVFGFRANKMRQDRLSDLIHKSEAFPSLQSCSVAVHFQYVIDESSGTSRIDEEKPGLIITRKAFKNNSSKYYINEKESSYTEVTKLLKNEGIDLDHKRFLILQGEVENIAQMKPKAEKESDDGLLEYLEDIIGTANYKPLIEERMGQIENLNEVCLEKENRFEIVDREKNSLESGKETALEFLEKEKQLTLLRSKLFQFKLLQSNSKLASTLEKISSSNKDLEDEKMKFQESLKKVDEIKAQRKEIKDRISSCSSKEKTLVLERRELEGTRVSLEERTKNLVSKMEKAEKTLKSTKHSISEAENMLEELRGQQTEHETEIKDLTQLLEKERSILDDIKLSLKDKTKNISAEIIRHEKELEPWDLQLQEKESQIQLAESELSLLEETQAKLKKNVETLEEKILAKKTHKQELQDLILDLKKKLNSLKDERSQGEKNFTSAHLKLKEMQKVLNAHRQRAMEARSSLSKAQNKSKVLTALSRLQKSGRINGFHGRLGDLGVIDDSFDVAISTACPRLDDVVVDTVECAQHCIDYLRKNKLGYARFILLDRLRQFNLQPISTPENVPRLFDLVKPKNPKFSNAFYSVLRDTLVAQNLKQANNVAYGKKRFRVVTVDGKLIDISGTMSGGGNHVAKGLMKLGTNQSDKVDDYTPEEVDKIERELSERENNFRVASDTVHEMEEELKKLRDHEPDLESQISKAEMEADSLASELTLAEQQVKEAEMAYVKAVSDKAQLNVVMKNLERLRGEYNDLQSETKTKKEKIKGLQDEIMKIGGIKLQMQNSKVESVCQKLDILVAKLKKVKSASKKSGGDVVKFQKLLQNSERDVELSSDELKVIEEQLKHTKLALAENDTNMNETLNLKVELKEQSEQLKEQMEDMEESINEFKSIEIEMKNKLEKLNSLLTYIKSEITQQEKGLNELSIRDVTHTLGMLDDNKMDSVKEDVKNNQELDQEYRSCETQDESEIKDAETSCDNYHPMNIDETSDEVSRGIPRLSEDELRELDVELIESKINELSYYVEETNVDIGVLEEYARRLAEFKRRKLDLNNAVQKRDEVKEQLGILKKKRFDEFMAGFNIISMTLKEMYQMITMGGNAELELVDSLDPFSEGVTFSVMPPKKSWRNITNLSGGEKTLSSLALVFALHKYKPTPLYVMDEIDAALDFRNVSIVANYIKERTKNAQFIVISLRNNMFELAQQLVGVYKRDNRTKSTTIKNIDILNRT
Briefly: cryo-EM structure.

B1: Brn1 (S. cerevisiae condensin kleisin subunit) (natural protein)
chain: MTTQLRYENNDDDERVEYNLFTNRSTMMANFEEWIKMATDNKINSRNSWNFALIDYFYDLDVLKDGENNINFQKASATLDGCIKIYSSRVDSVTTETGKLLSGLAQRKTNGASNGDDSNGGNGEGLGGDSDEANIEIDPLTGMPISNDPDVNNTRRRVYNRVLETTLVEFETIKMKELDQELIIDPLFKKALVDFDEGGAKSLLLNTLNIDNTARVIFDASIKDTQNVGQGKLQRKEEELIERDSLVDDENEPSQSLISTRNDSTVNDSVISAPSMEDEILSLGMDFIKFDQIAVCEISGSIEQLRNVVEDINQAKDFIENVNNRFDNFLTEEELQAAVPDNAEDDSDGFDMGMQQELCYPDENHDNTSHDEQDDDNVNSTTGSIFEKDLMAYFDENLNRNWRGREHWKVRNFKKANLVNKESDLLEETRTTIGDTTDKNTTDDKSMDTKKKHKQKKVLEIDFFKTDDSFEDKVFASKGRTKIDMPIKNRKNDTHYLLPDDFHFSTDRITRLFIKPGQKMSLFSHRKHTRGDVSSGLFEKSTVSANHSNNDIPTIADEHFWADNYERKEQEEKEKEQSKEVGDVVGGALDNPFEDDMDGVDFNQAFEGTDDNEEASVKLDLQDDEDHKFPIRENKVTYSRVSKKVDVRRLKKNVWRSINNLIQEHDSRKNREQSSNDSETHTEDESTKELKFSDIIQGISKMYSDDTLKDISTSFCFICLLHLANEHGLQITHTENYNDLIVNYEDLATTQAAS
Regarding B1, the binding result in experiment [1] and in experiment [2] was “binds” in each case.
